In patent US20240409645A1 (DUALYX, published 2024):

T1: human IL-2Rβ (human, UniProt P14784 27-240, limits assumed)
T1 construct: Recombinant human IL-2Rβ protein, coated on ELISA plates or immobilized on a CM5 chip; also called hu IL-2R; interleukin 2 receptor β-chain
T1 sequence: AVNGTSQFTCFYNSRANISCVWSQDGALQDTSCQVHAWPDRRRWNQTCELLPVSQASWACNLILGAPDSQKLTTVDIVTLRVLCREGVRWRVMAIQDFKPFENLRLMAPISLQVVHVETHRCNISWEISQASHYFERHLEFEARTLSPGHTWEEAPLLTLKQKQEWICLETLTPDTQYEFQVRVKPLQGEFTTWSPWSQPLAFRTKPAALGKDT

T2: human IL-2Rγ (common cytokine receptor γ-chain) (human, UniProt P31785 23-262, limits assumed)
T2 construct: Recombinant protein coated on the plate or immobilised on a CM5 chip; also called hu IL-2R; CD132
T2 sequence: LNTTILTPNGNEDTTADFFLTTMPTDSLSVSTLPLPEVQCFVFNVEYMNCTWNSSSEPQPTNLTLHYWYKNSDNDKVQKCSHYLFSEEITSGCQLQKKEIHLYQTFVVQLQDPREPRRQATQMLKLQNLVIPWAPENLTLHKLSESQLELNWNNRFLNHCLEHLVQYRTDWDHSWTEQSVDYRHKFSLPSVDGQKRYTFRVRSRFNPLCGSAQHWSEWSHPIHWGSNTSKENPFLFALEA

T3: mouse IL-2Rγ (mouse, UniProt P34902 23-263)
T3 construct: also called mo IL-2R
T3 sequence (looked up): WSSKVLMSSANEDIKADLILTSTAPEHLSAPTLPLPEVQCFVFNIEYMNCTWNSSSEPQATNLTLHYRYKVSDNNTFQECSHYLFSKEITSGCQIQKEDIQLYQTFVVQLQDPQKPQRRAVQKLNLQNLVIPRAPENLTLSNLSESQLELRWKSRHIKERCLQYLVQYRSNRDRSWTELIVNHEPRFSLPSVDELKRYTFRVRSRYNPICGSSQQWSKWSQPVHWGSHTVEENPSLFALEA


Experiments:
human IL-2Rβ [1] = biological target: T1, human IL-2Rβ; test: P.E. binding ELISA, human IL-2Rβ coated
Method: In a binding ELISA, human or mouse IL-2Rα, IL-2Rβ and IL-2Rγ proteins were coated directly on maxisorp microtiter plates overnight at 4° C. Free binding sites were blocked using 4% Marvel in PBS for 1 hour. Next, 1:5 dilution of P.E. in 1% Marvel/PBS were added to wells and incubated for 1 hour. […] Binding specificity was determined based on O.D. at 450 nm values compared to negative controls.

human IL-2Rβ [2] = biological target: T1, human IL-2Rβ; test: SPR off-rate ranking of P.E., human IL-2Rβ immobilized
Method: SPR was performed to determine dissociation rates using Biacore 3000 instrument (GE Healthcare). Briefly, human and mouse IL-2R proteins were immobilized on carboxylmethyl dextran sensor chip (CM5) at approximately 2500 RUs using amine coupling in acetate buffer (GE Healthcare). The VHH-containing P.E. were loaded with a flow rate of 30 uL/min and the off-rates were measured over a 120s period.

[3] = biological target: T2, human IL-2Rγ (common cytokine receptor …); test: SPR off-rate ranking, periplasmic extract on immobilised protein
Outline: (§1)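 Recombinant receptor was amine-coupled in acetate buffer onto a CM5 carboxymethyl dextran chip at approximately 2500 RU. VHH-containing periplasmic extracts were injected at 30 uL/min, and dissociation was followed for 120s to give off-rates.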

mouse IL-2Rγ [4] = biological target: T3, mouse IL-2Rγ; test: as above
Outline: as §1

[5] = biological target: T2, human IL-2Rγ (common cytokine receptor …); test: PE binding ELISA, periplasmic extract on coated protein
Outline: (§2)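 Read-out: OD at 450 nm, specificity called versus negative controls. Receptor chains (human or mouse IL-2Rα, β, γ) were coated directly overnight at 4° C; 4% Marvel/PBS block 1 h; P.E. at 1:5 dilution in 1% Marvel/PBS incubated 1 h.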

mouse IL-2Rγ [6] = biological target: T3, mouse IL-2Rγ; test: as above
Outline: as §2

| Binder | OD450 nm (P.E. binding ELISA) (human IL-2Rβ [1]) | koff (human IL-2Rβ [2]) | koff [3] | koff (mouse IL-2Rγ [4]) | OD (PE binding ELISA) [5] | OD (PE binding ELISA) (mouse IL-2Rγ [6]) |
| --- | --- | --- | --- | --- | --- | --- |
| FJ1427_P035MP04D01 (VHH, VHH in periplasmic extract; also called clone nr) VHH: QVQLVESGGGLVQAGGSLRLSCAASGRTLSRYAMGWFRQAPGKEREFVTANSWGGDTYYADSVQGRFTFSRDNAKNTVYLQMNSLQPEDTAVYYCAAAPTSFATTAYSSSNSYAYWGQGTQVTVSS | – | – | 0.00182 s⁻¹ | 0.113 s⁻¹ | 1.02 OD450 nm | 0.066 OD450 nm |
| 34-MP04A12 (VHH, VHH in periplasmic extract; also called FJ1427_P035MP04A12; clone nr) VHH: QVQLVESGGGLVQAGSSLRLSCAASGRTLSRLAMGWFRQAPGKEREFVAVNSWGGDTFYADSVEGRFTYSRDNAKSAVYLQMNSLQPEDTAVYYCAAAPTSFATTAYSSSNSYAYWGQGAQVTVSS | – | – | 0.000333 s⁻¹ | 0.00809 s⁻¹ | 1.3 OD450 nm | 3.6 OD450 nm |
| FJ1427_P035MP04D03 (VHH, VHH in periplasmic extract; also called clone nr) VHH: EVQLVESGGGLVQAEGSLRLSCAASGRTLSRYAMGWFRQAPGKEREFVTANSWGGDTYYADSVQGRFTFSRDNAKNTVYLQMNSLQPEDTAVYYCAAAPTSFATTAYSSSNSYAYWGQGTQVTVSS | – | – | 0.00143 s⁻¹ | 0.168 s⁻¹ | 1.66 OD450 nm | 0.063 OD450 nm |
| FJ1427_P035MP04A06 (VHH, VHH in periplasmic extract; also called clone nr) VHH: QVQLVESGGGLVQPGGSLRLSCAASGRTLSRYAMGWFRQAPGKEREFVTANSWGGDTYYADSVQGRFTFSRDNAKNTVYLQMNSLQPEDTAVYYCAAAPTSFATTAYSSSNSYAYWGQGTQVTVSS | – | – | 0.00283 s⁻¹ | 0.113 s⁻¹ | 0.898 OD450 nm | 0.063 OD450 nm |
| FJ1427_P035MP04C06 (VHH, VHH in periplasmic extract; also called clone nr) VHH: EVQLVESGGGLVQAGGSLRLSCAASGRTLSRYAMGWFRQAPGKEREFVTANSWGGDTYYADSVQGRFTFSRDNAKNTVYLQMNSLQPEDTAVYYCAAAPTSFATTAYSSSNSYAYWGQGTQVTVSS | – | – | 0.00201 s⁻¹ | 0.0465 s⁻¹ | 0.797 OD450 nm | 0.061 OD450 nm |
| 37-MP07F09 (VHH, VHH in periplasmic extract; also called FJ1427_P035MP07F09; clone nr) VHH: QVQLVESGGGLVQAGGSLRLSCAASGRTLSRYAMGWFRQAPGKEREYVAIDSWGGDTFYADSVEGRFTFSRDNAKNEVYLQMNSLQPEDTAVYYCAGAPTSFATTAYSSSNSYRYWGQGTQVTVSS | – | – | 0.00126 s⁻¹ | 0.007 s⁻¹ | 1.81 OD450 nm | 1.49 OD450 nm |
| 28-MP04D02 (VHH, VHH in periplasmic extract; also called FJ1427_P035MP04D02; clone nr; 300) VHH: QVQLVESGGGLVQAGGSLRLSCAASGRTLSRYAMGWFRQAPGKEREFVTANSWGGDTYYADSVQGRFTFSRDNAKNTVYLQMNSLQPEDTAVYYCAAAPTSFATTAYSGSNSYAYWGQGTQVTVSS | – | – | 0.0088 s⁻¹ | 0.319 s⁻¹ | 0.782 OD450 nm | 0.054 OD450 nm |
| FJ1427_P035MP04C04 (VHH, VHH in periplasmic extract; also called clone nr) VHH: EVQLVESGGGLVQAGGSLRLSCAASGRTLSRYAMGWFRQAPGKEREFVTANSWGGDTYYADSVQGRFTFSRDNAKNTVYLQMNSLQPEDTAVYYCAAAPTSFATTAYSSSNSYAYWGQGTQVTVSS | – | – | 0.00214 s⁻¹ | 0.151 s⁻¹ | 1.43 OD450 nm | 0.063 OD450 nm |
| FJ1427_P035MP04B05 (VHH, VHH in periplasmic extract; also called clone nr) VHH: EVQLVESGGGLVQAGGSLRLSCAASGRTLSRYAMGWFRQAPGKEREFVTANSWGGDTYYADSVQGRFTFSRDNAKNTVYLQMNSLQPEDTAVYYCAAAPTSFATTAYSSSNSYAYWGQGTQVTVSS | – | – | 0.00292 s⁻¹ | 0.138 s⁻¹ | 1.49 OD450 nm | 0.063 OD450 nm |
| FJ1427_P035MP04B08 (VHH, VHH in periplasmic extract; also called clone nr) VHH: QVQLVESGGGLVQAGGSLRLSCVASGRTLSRYAMGWFRQAPGKEREFVTANSWGGDTYYADSVQGRFTFSRDNAKNTVYLQMNSLQPEDTAVYYCAAAPTSFATTAYSSSNSYAYWGQGTQVTVSS | – | – | 0.00205 s⁻¹ | 0.113 s⁻¹ | 1.44 OD450 nm | 0.075 OD450 nm |
| FJ1427_P035MP04A01 (VHH, VHH in periplasmic extract; also called clone nr) VHH: EVQLVESGGGLVQAGGSLRLSCAASGRTLSRYAMGWFRQAPGKEREFVTANSWGGDTYYADSVQGRFTFSRDNAKNTVYLQMNSLQPEDTAVYYCAAAPTSFATTAYSSSNSYAYWGQGTQVTVSS | – | – | 0.00156 s⁻¹ | 0.132 s⁻¹ | 0.867 OD450 nm | 0.06 OD450 nm |
| 31-MP04E03 (VHH, VHH in periplasmic extract; also called FJ1427_P035MP04E03; clone nr) VHH: QVQLVESGGGLVQAGGSLRLSCTGYGGAFTGYALGWFRQAPGKEREFVARINWSGSFTYYASSVKGRFTISRDNAKNTMYLQMNNLKPEDTAVYYCAADNPSTLATDYDNWGQGTQVTVSS | – | – | – | 0.283 s⁻¹ | – | 0.495 OD450 nm |

Next, values leading:

| OD450 nm (P.E. binding ELISA) (human IL-2Rβ [1]) | koff (human IL-2Rβ [2]) | koff [3] | koff (mouse IL-2Rγ [4]) | OD (PE binding ELISA) [5] | OD (PE binding ELISA) (mouse IL-2Rγ [6]) | Binder |
| --- | --- | --- | --- | --- | --- | --- |
| 0.358 OD450 nm | 0.000208 s⁻¹ | – | – | – | – | FJ1427_P035MP06C10 (VHH, Soluble VHH in periplasmic extract (P.E.); also called Clone nr; 555) VHH: QVQLVESGGGLVQAGGSLRLSCAVSGDVFVRYTMAWFRQAPGKEREFVASVTDSGRTTEYVDSVKGRFTVSRDNAKNTAYLQMNNLKPEDTAVYYCAANTDYFQIRSLDLNTWGQGTQVTVSS |
| – | – | 0.00074 s⁻¹ | 0.061 s⁻¹ | 1.77 OD450 nm | 0.3 OD450 nm | FJ1427_P035MP04F03 (VHH, VHH in periplasmic extract; also called clone nr; 310) VHH: QVQLVESGGGLVQAGGSLRLSCAASGRTLSRNAMGWFRQAPGKEREFVAADSWGGDTFYADSVEGRFTFSRDNAKNAVYLQMNSLQPEDTAVYYCAGAPTSFATTAYSSSNSYRYWGQGTQVTVSS |
| – | – | 0.00189 s⁻¹ | 0.215 s⁻¹ | 0.919 OD450 nm | 0.079 OD450 nm | FJ1427_P035MP04E07 (VHH, VHH in periplasmic extract; also called clone nr) VHH: QVQLVESGGGLVQAGGSLRLSCAASGRTLSRYAMGWFRQAPGKERDFVAATSWGGDTYYADSVEGRFTFSRDNAKNAVYLQMNSLQPEDTAVYYCAAAPTSFATTAYSSSNSYAYWGQGTQVTVSS |
| – | – | 0.00145 s⁻¹ | 0.0137 s⁻¹ | 2.1 OD450 nm | 0.637 OD450 nm | FJ1427_P035MP04D06 (VHH, VHH in periplasmic extract; also called clone nr) VHH: QVQLVESGGGLVQAGGSLRLSCAASGRALSRLAMGWFRQAPGKEREFVVASSWGDDTFYADSVKGRFTFSRDNAKNTVYLQMNSLQPGDTAVYYCAAAPTSFATTAYSSSNSYAYWGQGTQVTVSS |
| – | – | 0.00249 s⁻¹ | 0.156 s⁻¹ | 0.789 OD450 nm | 0.064 OD450 nm | FJ1427_P035MP04F07 (VHH, VHH in periplasmic extract; also called clone nr) VHH: EVQLVESGGGLVQAGGSLRLSCAASGRTLSRYAMGWFRQAPGKEREFVTANSWGGDTYYADSVQGRFTFSRDNAKNTVYLQMNSLQPEDTAVYYCAAAPTSFATTAYSSSNSYAYWGQGTQVTVSS |
| – | – | 0.00162 s⁻¹ | 0.109 s⁻¹ | 0.652 OD450 nm | 0.07 OD450 nm | FJ1427_P035MP04E09 (VHH, VHH in periplasmic extract; also called clone nr) VHH: QVQLVESGGGLVQAGGSLRLSCAASGRTLSRYAMGWFRQAPGKEREFVTANSWGGDTYYADSVQGRSTFSRDNAKNTVYLQMNSLQPEDTAVYYCAAAPTSFATTAYSSSNSYAYWGQGTQVTVSS |
| – | – | 0.00122 s⁻¹ | 0.0666 s⁻¹ | 1.67 OD450 nm | 0.276 OD450 nm | FJ1427_P035MP04G04 (VHH, VHH in periplasmic extract; also called clone nr) VHH: QVQLVESGGGLVQAGGSLRLSCAASGRTLSRYAVGWFRQAPGKEREFVTANSWGGDTFYADSVQGRFTFSRDNAKNTVYLQMNSLLPEDAAVYYCAAAPTSFATTAYSSSNSYKVWGQGTQVTVSS |
